Experimental findings from paper PMC11393876 (Cancers, 2024) are described below.

What all share (conditions): both partners purified
Experiment [1] concerns the target T1, Biotin-hPD-1-mIgG Fc (human, UniProt Q15116, biotin).
T1 construct: PD-1, human; also called hPD-1-mFc; source: PharmaEssentia, purified fusion protein
Briefly: ELISA; competitive ELISA; human PD-L2 coated; Biotin-hPD-1-mIgG Fc at 0.025 μg/mL as binder; serial dilutions of P1801 from 0.5 μg/mL as competitor; 25 °C, 2 h.

In experiment [2] the target is T2, human PD-1 (Homo sapiens, UniProt Q15116).
T2 construct: programmed cell death 1 (PD-1), human; also called PD-1/His antigen; human PD-1 proteins; source: bought: Sino Biological (HPLC-10377-H08H) for the ELISA
Briefly: SPR; P1801 (2 µg/mL) captured on the surface; human PD-1 proteins injected; 25 °C; HBS-EP (10 mM HEPES, 150 mM NaCl, 3 mM EDTA, 0.05% Tween 20, pH 7.4).

A further experiment addresses T3, human CD28 (Homo sapiens, UniProt P10747).
T3 construct: CD28, human; source: bought: Sino Biological (11524-HCCH)
Briefly: ELISA; direct binding ELISA; antigens coated overnight, blocked with 1% BSA 2 h; P1801 incubated at 25 °C for 1 h; detected with peroxidase goat anti-hIgG Fc.

In experiment [3] the target is T2, human PD-1. The experiment is described as above.
The target of a further experiment is T4, human PD-L2 (human, UniProt Q9BQ51).
T4 construct: PD-L2, human; source: bought: Sino Biological (10292-H08H)
The description is as above.

The target in the next experiment is T5, human PD-L1 (human, UniProt Q9NZQ7).
T5 construct: programmed death-ligand 1 (PD-L1), human; also called programmed death-ligand 1; source: bought: Sino Biological (10084-H08H)
The experiment is described as above.

The next experiment deals with T6, mouse PD-1 (Mus musculus, UniProt Q02242).
T6 construct: PD-1, mouse; source: bought: Sino Biological (50124-M08H)
Described as above.

A further experiment addresses T7, human CTLA-4 (Homo sapiens, UniProt P16410).
T7 construct: CTLA-4, human; source: bought: Sino Biological (11159-H08H)
The experiment is described as above.

Another experiment has as its target T8, cynomolgus PD-1 (Macaca fascicularis (cynomolgus), UniProt B0LAJ3).
T8 construct: PD-1, cynomolgus monkey, GenBank NP_001271065.1; source: bought: Sino Biological (90311-C08H)
The experiment is described as above.

Experiment [4] deals with T1, Biotin-hPD-1-mIgG Fc. Briefly: ELISA; competitive ELISA; human PD-L1 coated; Biotin-hPD-1-mIgG Fc at 0.025 μg/mL as binder; serial dilutions of P1801 from 0.5 μg/mL as competitor; 25 °C, 2 h. In general terms: ELISA stands for enzyme-linked immunosorbent assay.

T2 sequence (Q15116 25-170): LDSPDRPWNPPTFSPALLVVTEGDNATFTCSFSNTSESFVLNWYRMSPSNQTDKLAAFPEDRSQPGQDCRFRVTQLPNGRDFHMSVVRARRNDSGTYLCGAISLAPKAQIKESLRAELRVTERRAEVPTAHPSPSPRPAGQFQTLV
T1 sequence (Q15116 25-170): as above
T7 sequence (P16410 36-161): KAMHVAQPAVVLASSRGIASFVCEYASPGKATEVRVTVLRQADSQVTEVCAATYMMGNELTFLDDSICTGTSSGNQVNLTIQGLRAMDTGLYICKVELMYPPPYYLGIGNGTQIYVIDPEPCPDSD
T6 sequence (Q02242 25-169): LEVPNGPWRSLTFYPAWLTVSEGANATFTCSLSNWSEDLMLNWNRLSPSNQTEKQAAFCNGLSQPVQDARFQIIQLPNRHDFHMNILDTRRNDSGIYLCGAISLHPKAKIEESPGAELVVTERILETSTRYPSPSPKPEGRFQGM
T4 sequence (Q9BQ51 20-220): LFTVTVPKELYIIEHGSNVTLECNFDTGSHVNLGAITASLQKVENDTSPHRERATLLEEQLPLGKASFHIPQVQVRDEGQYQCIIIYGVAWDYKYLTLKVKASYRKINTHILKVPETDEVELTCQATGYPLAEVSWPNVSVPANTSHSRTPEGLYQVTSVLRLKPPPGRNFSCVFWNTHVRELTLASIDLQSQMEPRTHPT
T3 sequence (P10747 19-152): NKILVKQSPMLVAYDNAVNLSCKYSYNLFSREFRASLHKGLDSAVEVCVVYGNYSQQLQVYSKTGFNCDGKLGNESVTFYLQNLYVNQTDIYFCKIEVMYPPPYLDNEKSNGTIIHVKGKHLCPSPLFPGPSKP
T5 sequence (Q9NZQ7 19-238): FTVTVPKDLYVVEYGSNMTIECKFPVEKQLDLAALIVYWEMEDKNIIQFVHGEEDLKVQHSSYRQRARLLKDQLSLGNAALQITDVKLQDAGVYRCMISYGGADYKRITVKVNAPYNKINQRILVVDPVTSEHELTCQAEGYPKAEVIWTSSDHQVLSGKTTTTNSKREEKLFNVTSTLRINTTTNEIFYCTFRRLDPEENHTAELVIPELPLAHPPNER

B1: P1801 (antibody, V domains shown)
VH: EVQLVESGGGLVQPGGSLRLSCAASGFTFSSYDMSWVRQAPGKGLEWVATITGGGSYTYYPDSVKGRFTISRDNAKNSLYLQMNSLRAEDTAVYYCASPYLNYFDYWGQGTLVTVSS
VL: EIVLTQSPATLSLSPGERATLSCRASQSISNNLHWYQQKPGQAPRLLIYYASQSISGIPARFSGSGSGTDFTLTISSLEPEDFAVYYCQQSNSWPLTFGQGTKLEIK
notes: 464 residues; mouse CDR1-3 in a human IgG4 framework with the S228P mutation; kappa light chain, 234 residues; mouse CDRs in a human framework; IgG4 kappa, S228P; humanized from murine clone PD-1RB-M59; The printed lengths (464 and 234 residues) may include signal peptides; Molecular weight 146,799 Da; also called anti-human PD-1 IgG4 humanized monoclonal antibody; source: CHO cell expression …
B1: the half-maximal inhibitory concentration (IC50) – broadly, the point on the concentration scale where inhibition reaches its midpoint – in the experiment with Biotin-hPD-1-mIgG Fc [1] worked out at 0.9 nM; in the experiment with Biotin-hPD-1-mIgG Fc [4] it was 0.57 nM. For the same molecule, the Kd (in general, the equilibrium constant for the complex coming apart) with human PD-1 [2] came out at 2.5 nM. Besides, the binding result in the experiment with human CD28, with human PD-L2, in the experiment with human PD-L1, with mouse PD-1 and with human CTLA-4 was “no binding” each time. Moreover, the EC50 – broadly, the concentration that produces a half-maximal response – was found to be 0.57 nM with human PD-1 [3] and 0.44 nM in the experiment with cynomolgus PD-1.
